Test results from patent publication US20220363757A1 (SYMPHOGEN A S, published 2022).
Substitutions are numbered along the chain they refer to.

T1: human LAG-3 domain 1-2 Fc fusion, point mutation #49 G105A (human, UniProt P18627 23-266)
T1 construct: not shown: human IgG1 Fc, AA P101-K330
T1 sequence: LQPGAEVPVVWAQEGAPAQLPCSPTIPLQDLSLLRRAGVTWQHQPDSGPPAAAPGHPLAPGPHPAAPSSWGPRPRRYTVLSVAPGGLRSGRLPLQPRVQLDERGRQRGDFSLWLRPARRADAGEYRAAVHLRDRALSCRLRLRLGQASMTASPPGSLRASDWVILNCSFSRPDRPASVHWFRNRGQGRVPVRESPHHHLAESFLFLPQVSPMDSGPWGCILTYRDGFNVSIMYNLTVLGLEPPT

T2: human LAG-3 domain 1-2 Fc fusion, point mutation #51 G107A (human, UniProt P18627 23-266)
T2 construct: not shown: human IgG1 Fc, AA P101-K330
T2 sequence: T1 sequence with A83G, G85A

T3: human LAG-3 domain 1-2 Fc fusion, point mutation #60 P118A (human, UniProt P18627 23-266)
T3 construct: not shown: human IgG1 Fc, AA P101-K330
T3 sequence: T1 sequence with A83G, P96A

T4: human LAG-3 domain 1-2 Fc fusion, point mutation #70 G130A (human, UniProt P18627 23-266)
T4 construct: not shown: human IgG1 Fc, AA P101-K330
T4 sequence: T1 sequence with A83G, G108A

T5: human LAG-3 domain 1-2 Fc fusion, point mutation #73 R137A (human, UniProt P18627 23-266)
T5 construct: not shown: human IgG1 Fc, AA P101-K330
T5 sequence: T1 sequence with A83G, R115A

T6: human LAG-3 domain 1-2 Fc fusion, point mutation #75 R141A (human, UniProt P18627 23-266)
T6 construct: not shown: human IgG1 Fc, AA P101-K330
T6 sequence: T1 sequence with A83G, R119A

T7: human LAG-3 domain 1-2 Fc fusion, point mutation #78 R154A (human, UniProt P18627 23-266)
T7 construct: not shown: human IgG1 Fc, AA P101-K330
T7 sequence: T1 sequence with A83G, R132A

T8: human LAG-3 domain 1-2 Fc fusion, point mutation #30 G83A (human, UniProt P18627 23-266)
T8 construct: not shown: human IgG1 Fc, AA P101-K330
T8 sequence: T1 sequence with G61A, A83G

T9: human LAG-3 domain 1-2 Fc fusion, point mutation #40 G93A (human, UniProt P18627 23-266)
T9 construct: not shown: human IgG1 Fc, AA P101-K330
T9 sequence: T1 sequence with G71A, A83G

B1: Fab fragment of antibody 15532 (Fab, V domains shown, not shown: a dimerising Fc or GST)
VH: QVQLQQWGAGLLRPSETLSLTCAVYGESFSGYYWNWIRQPPGKGLEWIGEINHSGSTNYNPSLKSRVTISVDTSKTQFSLKLSSVTAADTAVYYCARGWDLLDWNDYWNEYWGQGTLVTVSS
VL: EIVLTQSPATLSLSPGERATLSCRASQSVSSYLAWYQQKPGQAPRLLIYDASNRATGIPARFSGSGSGTDFTLTISSLEPEDFAVYYCQQRSNWPLTFGGGTKVEIKR
notes: monomeric Fab made by GingisKHAN digestion of the IgG1
B2: Fab fragment of antibody 15431 (Fab, V domains shown, not shown: a dimerising Fc or GST)
VH: QVQLQQSGPGLVKPSQTLSLTCAISGDSVSSNSAAWNWIRQSPSRGLEWLGRTYYRSKWYNDYAVSVKSRITINPDTSKNQFSLQLNSVTPEDTAVYYCARDDDWNDFDYWGQGTLVTVSS
VL: B1 VL
notes: as for B1
B3: Fab fragment of antibody 15011 (Fab, V domains shown, not shown: a dimerising Fc or GST)
VH: EVQLLESGGGLVQPGGSLRLSCAASGFDFRSYAMMWVRQAPGKGLEWVGGINGEVGGSNTYYAPAVKGRATISRDNSKNTLYLQMNSLRAEDTAVYYCVKGAGACGICNDDIDAWGQGTLVTVSS
VL: SYELTQDPAVSVALGQTVRITCSGAGSYAGSYYYGWHQQKPGQAPVTVIYDNDKRPSNIPDRFSGSSSGNTASLTITGAQAEDEADYYCGSTNDNDDGGLFGSGTKVTVLG
notes: as for B1
B4: Fab fragment of antibody 15572 (Fab, V domains shown, not shown: a dimerising Fc or GST)
VH: QLQLQESGPGLVKPSETLSLTCTVSGDSISSSSYYWGWIRQPPGKGLEWIGSIFYSGNTYYNPSLKSRVTISVDTSKNQFSLKLSSVTAADTAVYYCAREDDFLTDYYGAFDIWGQGTMVTVSS
VL: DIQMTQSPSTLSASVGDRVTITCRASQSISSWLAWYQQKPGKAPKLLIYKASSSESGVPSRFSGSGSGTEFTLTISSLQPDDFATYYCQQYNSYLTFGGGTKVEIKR
notes: as for B1

How the values were obtained:
Assay in all cases: SPR, Fab over captured mutant LAG-3-Fc;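 also: fc fusion variants captured on anti-human IgG Fc sensor, Fab injected with association then dissociation phases, KD obtained from Langmuir one-to-one fit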
[1] = target: T1, human LAG-3 domain 1-2 Fc fusion, point …
[2] = target: T2, human LAG-3 domain 1-2 Fc fusion, point …
[3] = target: T3, human LAG-3 domain 1-2 Fc fusion, point …
[4] = target: T4, human LAG-3 domain 1-2 Fc fusion, point …
[5] = target: T5, human LAG-3 domain 1-2 Fc fusion, point …
[6] = target: T6, human LAG-3 domain 1-2 Fc fusion, point …
[7] = target: T7, human LAG-3 domain 1-2 Fc fusion, point …
[8] = target: T8, human LAG-3 domain 1-2 Fc fusion, point …
[9] = target: T9, human LAG-3 domain 1-2 Fc fusion, point …

| Binder | KD mutant/KD wild type [1] [fold] | KD mutant/KD wild type [2] [fold] | KD mutant/KD wild type [3] [fold] | KD mutant/KD wild type [4] [fold] | KD mutant/KD wild type [5] [fold] | KD mutant/KD wild type [6] [fold] | KD mutant/KD wild type [7] [fold] | KD mutant/KD wild type [8] [fold] | KD mutant/KD wild type [9] [fold] | binding result [2] | binding result [4] | binding result [5] |
| --- | --- | --- | --- | --- | --- | --- | --- | --- | --- | --- | --- | --- |
| B1 | 1.1 | 2.1 | 0.7 | 4.4 | 3.6 | 0.7 | 0.8 | 1.1 | 7.1 | – | – | – |
| B2 | 0.4 | – | 1 | – | – | 1 | 1 | 0.5 | 11.6 | no binding (tested: 300 nM) | no binding (tested: 300 nM) | no binding (tested: 300 nM) |
| B3 | 1.6 | 5.7 | 1.2 | 0.6 | 0.6 | 1.1 | 1.2 | 0.7 | 1 | – | – | – |
| B4 | 0.4 | – | 0.9 | – | – | 0.9 | 0.8 | 0.5 | 0.8 | no binding (tested: 300 nM) | no binding (tested: 300 nM) | no binding (tested: 300 nM) |
